According to patent publication US12576170B2, “Rk polypeptide radiopharmaceutical targeting HER2 and preparation method thereof” (BEIJING GILUNTIDE PHARMACEUTICAL CO., LTD., priority 2019, dated 2026):

Key:
[1] = water solubility; format: physicochemical; conditions: compared with refvffly polypeptide
[2] = tested on: MCF7 of no HER2 expression; assay: cell binding assay, MCF7 cells; design: species or system Human
Procedure: (§1) The rk polypeptide radiopharmaceuticals were sampled for radioactive HPLC analysis. The HPLC was conducted in an Agilent 1260 HPLC system equipped with a YMC-Pack ODS-A analytic column (250× 4.6 mm, I.D. S-5 μm, 12 nm), and a 20-min gradient elution was performed at a flow rate of 1 mL/min, wherein the mobile A phase was deionized water (containing 0.05% TFA) and the mobile B phase was acetonitrile (containing 0.05% TFA). The elution gradients were 90% A and 10% B at beginning, and 30% A and 70% B at 20 min. The labeling rate of ^99mTc-HYNIC-PEG4-(Aoc-rk)2 was >95%, and the radiochemical purity was >98% as measured by HPLC with a Sep-Pak C18 column. The results of a binding affinity assay of HYNIC-PEG4-(Aoc-rk)2 to HER2 are shown in FIG. 3: Human breast cancer cells SKBR3 of high HER2 expression and MCF7 of no HER2 expression were used as experimental samples, and ^99mTc-HYNIC-PEG4-(Aoc-rk)2 was used as a radioactive ligand specifically binding to HER2 receptor. In this cell binding assay, the binding capacities of ^99mTc-HYNIC-PEG4-(Aoc-rk)2 to SKBR3 and MCF7 were measured, with a blocking group treated with excessive HYNIC-PEG4-(Aoc-rk)2 to verify the binding specificity of ^99mTc-HYNIC-PEG4-(Aoc-rk)2 to SKBR3.

[3] = tested on: SKBR3 of high HER2 expression; assay: cell binding assay, SKBR3 cells; design: species or system Human
Procedure: as §1

[4] = tested on: breast cancer; format: in vivo, human patients
Procedure: SPECT/CT imaging of ^99mTc-HYNIC-PEG4-(Aoc-rk)2 in breast cancer patients: with approval by the Ethics Review Committee of the Peking Union Medical College Hospital and informed consent, 20 female patients with suspected breast cancer by molybdenum target X-ray or ultrasonography were recruited and subjected to SPECT/CT imaging and PET/CT imaging 1 week before surgery. The patients were administered intravenously with 11.1 MBq (0.3 mCi)/kg body weight of ^99mTc-HYNIC-PEG4-(Aoc-rk)2 30 min before SPECT/CT scan, and 5.6 MBq (0.15 mCi)/kg body weight of ^18F-FDG 60 min before PET/CT scan.

[5] = molecular target: T1, HER2 (Homo sapiens, UniProt P04626); assay: HER2 binding specificity detection at protein and cell level; conditions: protein and cellular levels, FIG. 12
[6] = tested on: HER2-positive model (SKBR3 breast tumor model); conditions: in vivo
From the text: This is especially critical for breast cancer tumors in situ in the thorax, since the contrast agent ^99mTc-HPArk2 of the present invention is more advantageous in imaging breast cancer lesions in situ.
The specific difference of in vivo pharmacokinetics between the present invention and the radiopharmaceutical disclosed in Patent No. CN 109045313 A is shown in FIG. 11. FIG. 11 illustrates the uptake in tumor and comparison of data corresponding to the images in FIG. 10. […] FIG. 11 panel B illustrates the results of calculations from FIG. 11 panel A. The uptakes in tumor and the organs were compared and analyzed. […] As is also seen in FIG. 10, a smaller tumor was visualized by ^99mTc-HPArk2 imaging, and the imaging effect is guaranteed. […] Therefore, the contrast ratio for imaging is better, and particularly, the low uptake in heart and liver in the chest cavity may facilitate clear imaging of the in-situ tumor of the breast cancer.

[7] = tested on: SKBR3 breast tumor model; design: species or system NOD SCID mice; conditions: mouse, in vivo
Procedure: (§2) Thus the polypeptide is suitable for delayed imaging and more beneficial for tumor diagnosis.
SPECT/CT imaging: Different tumor models with similar tumor sizes were selected, administered with 1 mCi ^99mTc-HYNIC-PEG4-(Aoc-rk)2 through tail vein, and subjected to SPECT/CT imaging 0.5 h later. The SPECT images were reconstructed after imaging, fused with the CT image to give 3D images of the mouse, and the tumor lesion was extracted by In VivoScope software for quantitative analysis.
Preparation of ^99mTc-HYNIC-PEG4-(PEG4-rk) 2:500 μL of a mixture containing 5.0 mg of trisodium triphenylphosphine-3,3′, 3″-trisulfonate (TPPTS), 6.5 mg of tricine, 38.5 mg of disodium succinate hexahydrate, 12.7 mg of succinic acid and 50 μg of HYNIC-PEG4-(PEG4-rk)2 was prepared in a 10 mL vial and lyophilized. 1.0-1.5 mL of Na^99mTcO4 solution (10-35 mCi) was added to the lyophilized powder. The vial was incubated in a water bath at 100° C. for 20-25 min, and cooled at room temperature for 10 min after the reaction is completed to give the rk polypeptide radiopharmaceutical. The rk polypeptide radiopharmaceuticals were sampled for radioactive HPLC analysis. The HPLC was conducted in an Agilent 1260 HPLC system equipped with a YMC-Pack ODS-A analytic column (250× 4.6 mm, I.D. S-5 μm, 12 nm), and a 20-min gradient elution was performed at a flow rate of 1 mL/min, wherein the mobile A phase was deionized water (containing 0.05% TFA) and the mobile B phase was acetonitrile (containing 0.05% TFA). The elution gradients were 90% A and 10% B at beginning, and 30% A and 70% B at 20 min. The labeling rate of ^99mTc-HYNIC-PEG4-(PEG4-rk)2 was >95%, and the radiochemical purity was >98% as measured by a Sep-Pak C18 column.

[8] = design: species or system NOD SCID mice; conditions: mouse, in vivo, iv
Procedure: The biodistribution of ^99mTc-HYNIC-PEG4-(Aoc-rk)2 in tumor-bearing mice: NOD SCID mice bearing SKBR3 tumor were randomized with 4 mice in each group. Each group of mice were injected with different ^99mTc-labeled polypeptides via tail vein, and sacrificed at 30 and 60 min after injection. Samples of blood and major organs were collected, weighed and measured for radiological counting, and the decay-corrected percent injection dose rate per gram of tissue (% ID/g) was calculated. The results of the experiment are shown in FIG. 8, in which the uptake in tumor at 30 min was 3.7% ID/g, and the uptake was low in blood and organs other than kidney.

[9] = tested on: HER2-negative EGFR-positive MDA-MB-468 breast cancer model; assay: imaging in HER2-negative/EGFR-positive tumor model; format: in vivo; conditions: FIG. 13
From the text: Since EGFR and HER2 are members of the same family and have similar structures, they are difficult to be distinguished by targeting molecules. As such, false positives and false negatives are inevitable when detecting tumors.

[10] = molecular target: T1, HER2; assay: correlation between uptake in tumor and HER2 expression level in tumor models; format: in vivo, mouse; design: tumor cells with different HER2 expression levels, including human breast cancer cell lines SKBR3, MCF7 and MDA-MB-468; endogenous in cells; host or cells: SKBR3, MCF7, MDA-MB-468, HT29, BxPC3 human tumour cells as xenografts in mice; conditions: SKBR3 (high), HT29 (moderate), BxPC3 (low HER2) tumor models
From the text: as §2
Correlation between uptake of ^99mTc-HYNIC-PEG4-(Aoc-rk)2 in tumor and HER2 expression level: tumor cells with different HER2 expression levels, including human breast cancer cell lines SKBR3, MCF7 and MDA-MB-468, human colorectal cancer cell line HT29 and human pancreatic cancer cell line BxPC3, were selected and subjected to flow cytometry for quantitative analysis of HER2 expression in cells. Then the tumor models of the cells were subjected to SPECT/CT imaging, and the uptake in tumor was quantitatively analyzed. Finally, the correlation between HER2 expression and the uptake in tumor was investigated.
Flow cytometry: The cells were digested using 0.25% EDTA/pancreatin, blocked for 15 min, centrifuged, washed with PBS, and divided into a treatment group and a control group. […] The two groups were incubated for 0.5 h in the dark at 4° C., washed for 3 times using cold PBS, and analyzed on a flow cytometer. The mean fluorescence intensity (MFI) of the bound antibody on each cell was calculated through a standard flow cytometry curve. […]
Analysis of correlation between HER2 expression level and uptake in tumor: the linear relationship between HER2 expression level (MFI) and uptake in tumor (% ID/g) was plotted using prism 7.0 software, and the R^2 value was calculated.

## CC(C)C[C@@H](NC(=O)[C@@H](CCCNC(=N)N)NC(=O)[C@@H](CC(C)C)NC(=O)[C@@H](CCC(=O)O)NC(=O)[C@@H](Cc1c[nH]c2ccccc12)NC(=O)[C@@H](CC(N)=O)NC(=O)[C@H](N)CCCNC(=N)N)C(=O)N[C@H](CCCCN)C(=O)O [rk polypeptide, Arg-Asn-Trp-Glu-Leu-Arg-Leu-Lys]
[1]
  water solubility: superior to that of refvffly polypeptide

## CC(C)C[C@@H](NC(=O)[C@@H](CCCNC(=N)N)NC(=O)[C@@H](CC(C)C)NC(=O)[C@@H](CCC(=O)O)NC(=O)[C@@H](Cc1c[nH]c2ccccc12)NC(=O)[C@@H](CC(N)=O)NC(=O)[C@@H](CCCNC(=N)N)NC(=O)CCCCCCCNC(=O)CC[C@H](NC(=O)CCOCCOCCOCCOCCNC(=O)c1ccc(NN)nc1)C(=O)NCCCCCCCC(=O)N[C@H](CCCNC(=N)N)C(=O)N[C@H](CC(N)=O)C(=O)N[C@H](Cc1c[nH]c2ccccc12)C(=O)N[C@H](CCC(=O)O)C(=O)N[C@H](CC(C)C)C(=O)N[C@H](CCCNC(=N)N)C(=O)N[C@H](CC(C)C)C(=O)N[C@H](CCCCN)C(=O)O)C(=O)N[C@H](CCCCN)C(=O)O [^99mTc-HYNIC-PEG4-(Aoc-rk)2, metal not drawn]
[2]
  binding rate per 10^5 cells: 1.14 % per 10^5 cells
[3]; SKBR3 blocking group treated with excessive HYNIC-PEG4-(Aoc-rk)2
  binding rate per 10^5 cells, blocking group: 1.24 % per 10^5 cells
[3]; SKBR3 cells
  binding rate per 10^5 cells: 4.49 % per 10^5 cells
[4]; 5 of 6 patients
  patients with lymph node metastasis in whom metastasis was shown: 83%
[4]; 14 of 15 patients, 11.1 MBq/kg i.v., 30 min before scan
  patients with pathologically diagnosed breast cancer whose tumor was accurately imaged: 93%
[4]; human, in vivo
  adverse effects during the clinical trial: No adverse effect related to the radiopharmaceutical was found
[5]
  HER2 specificity: good specificity at both protein and cellular levels
[6]
  hepatic uptake (FIG. 10): lowest
  ratios of tumor to normal tissues such as blood, heart, liver, spleen, intestine and stomach: relatively higher
  uptake in blood, heart, liver, spleen, intestine, stomach, bone and other tissues: relatively lower
  uptake in tumor (biodistribution, FIG. 11): relatively higher uptake in tumor than those of ^99mTc-HP4-ref and ^99mTc-HP24-ref
  uptake in tumor (image quantification, FIG. 10): higher uptake in tumor than that of ^99mTc-HP24-ref, with no significant difference from ^99mTc-HP4-ref
  uptake ratio of tumor to liver: highest
[7]
  tumor visualization in delayed imaging: still clearly visualized
  uptake in tumor (SPECT/CT): clearly visible and significantly higher than that of the monomer
  uptake in tumor, Herceptin blocking group: substantially unchanged
  uptake in tumor, cold peptide blocking group: significantly reduced uptake in tumor
  whole-body background (SPECT/CT): clean whole-body background
[8]
  tissue uptake at 0.5 h: 3.7 %ID/g
[9]
  imaging result in HER2-negative EGFR-positive model: negative result
[10]
  relation of uptake to HER2 expression level (SPECT/CT): linearly related to the expression level of HER2
